According to patent US20110207132:

Tested on: BfuCI restriction endonuclease
Assay: cleavage_in_vitro
Details: for binding signal (signal/no-template): after 25 min
[1] = phosphorothioate 5' of GATC in probe B
[2] = phosphorothioate 5' of GATC in probe B, JP3 cleaved greater than four times faster

For “AGAGTCCACCAAGCTTCAGATTAG / TCTGAAGCTTTGATC / AAAAGATCAAATTGGTGGACTCTAAAA [JP3]”, the activity (phosphorothioate 5' of GATC in probe B, average rate first 5 min, 7-fold signal enhancement over JP2) was 0.9 nM/min.
Work on “AGAGTCCACCAAGCTTCAGATTAG / TCTGAAGCTTTGATC / AAAAGATCAAATTGGTGGACTCTAAAA [JP4]” yielded a binding signal (phosphorodithioate 5' of GATC in probe B, fluorescence enhancement) of 3 fold vs JP2.
“AGAGTCCACCAAGCTTCAGATTAG / TCTGAAGCTTTGATC / AAAAGATCAAATTGGTGGACTCTAAAA [T1/A/B junction probe (JP2)]” showed a binding signal (fold vs no template) (NEBuffer 4, 10 mM Mg, 30 C, 5 h) of 60.
Work on “AGAGTCCACCAAGCTTCAGATTAG / TCTGAAGCTTTGATC / AGTAACGGAAAACCGTTACTAAAAGATCAAATTGGTGGACTCT [JP10]” yielded a binding signal (signal/no-template) [1] of 4.7.
Sequence “AGAGTCCACCAAGCTTCAGATTAG / TCTGAAGCTTTGATC / AGTAACGGAAAACCGTTACTAAAAGATCAATTTGGTGGACTCT [JP13]” has a binding signal (signal/no-template) [1] of 13.5.
Work on “AGAGTCCACCAAGCTTCAGATTAG / TCTGAAGCTTTGATC / AGTAACGGAAAACCGTTACTAAAAGATCATATTGGTGGACTCT [JP14]” yielded a binding signal (signal/no-template) [1] of 9.
“AGAGTCCACCAAGCTTCAGATTAG / TCTGAAGCTTTGATC / CCCCGATCAAATTGGTGGACTCTAAAA [JP8]” was tested, and the binding signal [2] was < 0.25 fold vs JP3.
In the case of “AGAGTCCACCAAGCTTCAGATTAG / TCTGAAGCTTTGATC / GGGGGATCAAATTGGTGGACTCTAAAA [JP7]”, the binding signal [2] was < 0.25 fold vs JP3.
“AGAGTCCACCAAGCTTCAGATTAG / TCTGAAGCTTTGATC / TGGATCGGAAAACCGATCCAGATCATATTGGTGGACTCT [JP18]” was tested, and the activity (phosphorothioate 5' of each GATC in probe B, initial rate, NEBuffer 4, 10 mM Mg, 30 C) was 82 nM/min.
Work on “AGAGTCCACCAAGCTTCAGATTAG / TCTGAAGCTTTGATC / TGTAACGGAAAACCGTTACAGATCAAATTGGTGGACTCT [JP12]” yielded an activity (phosphorothioate 5' of GATC in probe B, average rate first 5 min, 30 C) of 39 nM/min.
Work on “AGAGTCCACCAAGCTTCAGATTAG / TCTGAAGCTTTGATC / TGTAACGGAAAACCGTTACAGATCATATTGGTGGACTCT [JP16]” yielded an activity (phosphorothioate 5' of GATC in probe B, initial rate, 30 C) of 43 nM/min.
With “AGAGTCCACCAAGCTTCAGATTAG / TCTGAAGCTTTGATC / TTTTGATCAAATTGGTGGACTCTAAAA [JP9]” the binding signal [2] was < 0.25 fold vs JP3.
